Source: paper PMC6934807, “Development of hypoallergenic variants of the major horse allergen Equ c 1 for immunotherapy by rational structure based engineering” (Scientific Reports, 2019)

Tests used:
[1] = target: the molecule itself; assay: cell-based or functional assay
[2] = target: the molecule itself; assay: native MS; native ESI FT-ICR MS at 40 µM protein, 10 mM ammonium acetate pH 6.9; Kd of Triple 3 estimated from monomer and dimer intensities at this single concentration; dimer to monomers
[3] = target: T1, recombinant Equ c 1 wild type (Equ c 1.0101) (horse); assay: SEC; SE-UHPLC, Acquity BEH125 SEC column, PBS (12 mM Na2HPO4, 3 mM NaH2PO4, 150 mM NaCl, pH 7.3), 2 µl of a 40 µM protein solution injected, compared with protein standards; conditions: both partners purified
T1 chain: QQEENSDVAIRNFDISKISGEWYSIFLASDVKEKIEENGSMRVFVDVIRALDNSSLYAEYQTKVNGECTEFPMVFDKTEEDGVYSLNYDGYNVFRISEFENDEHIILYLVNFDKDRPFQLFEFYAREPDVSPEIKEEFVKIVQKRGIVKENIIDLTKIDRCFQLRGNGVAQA

[4] = target: T1, recombinant Equ c 1 wild type (Equ c …); assay: native MS; native ESI FT-ICR MS, dilution series 0.1-4.8 µM (monomer) in 10 mM ammonium acetate, diluted samples kept four days at +4 °C, five parallel spectra per concentration; Kd from monomer and dimer ion intensities; dimer to monomers; conditions: both partners purified

| Binder | EC50 of histamine release from stripped basophils passively sensitised with serum A of a horse allergic person [1] | EC50 of histamine release from stripped basophils passively sensitised with serum B of a horse allergic person [1] | EC50 of histamine release from stripped basophils passively sensitised with serum C of a horse allergic person [1] | EC50 of histamine release from stripped basophils passively sensitised with serum D of a horse allergic person [1] | EC50 of histamine release from stripped basophils passively sensitised with serum E of a horse allergic person [1] | EC50 of histamine release from stripped basophils passively sensitised with serum F (RefLab's positive control serum) [1] | EC50 of histamine release from stripped basophils, median of the six sera [1] | Kd [2] | stoichiometry N [3] | Kd [4] |
| --- | --- | --- | --- | --- | --- | --- | --- | --- | --- | --- |
| Equ c 1 Triple 2 (V47K + V110E + F112K) (natural protein) QQEENSDVAIRNFDISKISGEWYSIFLASDVKEKIEENGSMRVFVDKIRALDNSSLYAEYQTKVNGECTEFPMVFDKTEEDGVYSLNYDGYNVFRISEFENDEHIILYLENKDKDRPFQLFEFYAREPDVSPEIKEEFVKIVQKRGIVKENIIDLTKIDRCFQLRGNGVAQA | 0.11 nM | 0.24 nM | 0.22 nM | 0.18 nM | 0.84 nM | 0.72 nM | 0.23 nM | – | – | – |
| Equ c 1 Triple 3 (E21Y + V110E + F112K) (natural protein) QQEENSDVAIRNFDISKISGYWYSIFLASDVKEKIEENGSMRVFVDVIRALDNSSLYAEYQTKVNGECTEFPMVFDKTEEDGVYSLNYDGYNVFRISEFENDEHIILYLENKDKDRPFQLFEFYAREPDVSPEIKEEFVKIVQKRGIVKENIIDLTKIDRCFQLRGNGVAQA | 0.29 nM | 0.42 nM | 0.52 nM | 0.26 nM | 3.7 nM | 1.1 nM | 0.47 nM | ~800000 nM | – | – |
| recombinant Equ c 1 wild type (Equ c 1.0101) (natural protein, extra vector-derived N-terminal Ala left out; disulfide Cys68-Cys161 (mature numbering, precursor = +15); homodimer at micromolar concentration (Kd 15.6 nM) / extra vector-derived N-terminal Ala left) QQEENSDVAIRNFDISKISGEWYSIFLASDVKEKIEENGSMRVFVDVIRALDNSSLYAEYQTKVNGECTEFPMVFDKTEEDGVYSLNYDGYNVFRISEFENDEHIILYLVNFDKDRPFQLFEFYAREPDVSPEIKEEFVKIVQKRGIVKENIIDLTKIDRCFQLRGNGVAQA | – | – | – | – | – | – | – | – | 2 | 15.6 ± 0.8 nM |
